Three substances from PMC5028032, “Linkage between Fitness of Yeast Cells and Adenylate Kinase Catalysis” (PLoS ONE, 2016) can be followed below.

What is called Km is the concentration of substrate that gives half-maximal velocity. Broadly, the kcat is the number of substrate molecules converted per active site and unit of time at saturation. The kcat/Km is the second-order rate constant that governs catalysis at low substrate concentration.

This series relates to Nc1ncnc2c1ncn2[C@@H]1O[C@H](COP(=O)(O)OP(=O)(O)OP(=O)(O)O)[C@@H](O)[C@H]1O. The series can be described thus: purified protein. The conditions noted are these: 300 μM AMP constant, 2 mM MgCl2, 80 mM KCl, 100 mM Tris pH 7.5, 20°C.
As for Adkeco (Escherichia coli K-12), the Km turned out to be 72 ± 8 µM, the kcat was 305 s⁻¹ and the kcat/Km came to 4.26e+06 M⁻¹ s⁻¹.
Adkeco (Escherichia coli K-12; G10V): the Km stood at 411 ± 61 µM, the kcat is 60 s⁻¹ and the kcat/Km is 140000 M⁻¹ s⁻¹.
The corresponding values for Adkeco (Escherichia coli K-12; T163C) are 37 ± 2 µM, 143 s⁻¹ and 3.9e+06 M⁻¹ s⁻¹.
